Test results published in patent publication US20160215040A1 (Regeneron, published 2016).

Tests used:
[1] = target: T1, Ebola virus GP, Cote d'Ivoire strain, on VLPs (Ebola virus, Cote d'Ivoire strain, UniProt Q66810 33-676); test: MSD, VLPs coated
T1 construct: also called Cote d'Ivoire FJ217162; Ivory Coast
T1 sequence: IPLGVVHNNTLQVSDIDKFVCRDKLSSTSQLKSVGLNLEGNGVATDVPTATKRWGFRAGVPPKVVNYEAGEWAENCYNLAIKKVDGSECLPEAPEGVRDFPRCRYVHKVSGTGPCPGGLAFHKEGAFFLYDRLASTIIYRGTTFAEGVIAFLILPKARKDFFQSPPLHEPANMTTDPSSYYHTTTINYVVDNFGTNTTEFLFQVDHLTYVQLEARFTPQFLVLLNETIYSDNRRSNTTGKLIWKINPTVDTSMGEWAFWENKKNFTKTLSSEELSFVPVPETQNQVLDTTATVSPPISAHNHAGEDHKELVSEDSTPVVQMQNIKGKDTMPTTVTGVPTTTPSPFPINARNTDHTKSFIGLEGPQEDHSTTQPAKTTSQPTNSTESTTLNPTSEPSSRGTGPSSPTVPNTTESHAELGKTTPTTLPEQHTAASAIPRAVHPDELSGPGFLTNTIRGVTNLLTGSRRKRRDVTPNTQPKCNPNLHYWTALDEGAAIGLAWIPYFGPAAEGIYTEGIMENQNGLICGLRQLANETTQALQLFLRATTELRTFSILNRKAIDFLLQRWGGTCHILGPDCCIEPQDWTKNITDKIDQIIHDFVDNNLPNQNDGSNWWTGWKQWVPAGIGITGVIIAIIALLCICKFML

[2] = target: T2, Ebola virus GP with a C-terminal polyhistidine tag (Sino Biologicals, Catalog #40442-V08B1) (Ebola virus, UniProt P87666 33-650); test: SPR 25C, mAb captured
T2 construct: also called EbolaGP.his; Ebola virus GP.his

[3] = target: T2, Ebola virus GP with a C-terminal …; test: SPR 37C, mAb captured
[4] = target: T3, hCNTFR.mmh (ciliary neurotrophic factor receptor.mmh) (human (printed as hCNTFR), UniProt P26992 23-342); test: BLI, mAb captured, 25C
T3 construct: also called negative control protein; not shown: mmh (myc-myc-hexahistidine) tag
T3 sequence: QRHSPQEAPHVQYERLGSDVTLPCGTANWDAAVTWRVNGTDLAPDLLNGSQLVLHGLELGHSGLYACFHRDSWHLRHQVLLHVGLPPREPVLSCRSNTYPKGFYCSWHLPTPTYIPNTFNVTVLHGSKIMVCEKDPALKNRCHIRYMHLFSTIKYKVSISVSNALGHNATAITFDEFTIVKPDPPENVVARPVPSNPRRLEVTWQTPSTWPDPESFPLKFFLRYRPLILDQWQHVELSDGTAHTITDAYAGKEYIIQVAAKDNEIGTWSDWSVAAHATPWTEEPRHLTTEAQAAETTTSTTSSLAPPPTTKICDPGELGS

[5] = target: T2, Ebola virus GP with a C-terminal …; test: SPR 37C, mAb captured, pH chase
[6] = target: T4, Ebola virus GP, Sudan strain, on VLPs (Ebola virus, Sudan strain, UniProt Q7T9D9 33-676); test: MSD, VLPs coated
T4 construct: also called Sudan NC_006432
T4 sequence: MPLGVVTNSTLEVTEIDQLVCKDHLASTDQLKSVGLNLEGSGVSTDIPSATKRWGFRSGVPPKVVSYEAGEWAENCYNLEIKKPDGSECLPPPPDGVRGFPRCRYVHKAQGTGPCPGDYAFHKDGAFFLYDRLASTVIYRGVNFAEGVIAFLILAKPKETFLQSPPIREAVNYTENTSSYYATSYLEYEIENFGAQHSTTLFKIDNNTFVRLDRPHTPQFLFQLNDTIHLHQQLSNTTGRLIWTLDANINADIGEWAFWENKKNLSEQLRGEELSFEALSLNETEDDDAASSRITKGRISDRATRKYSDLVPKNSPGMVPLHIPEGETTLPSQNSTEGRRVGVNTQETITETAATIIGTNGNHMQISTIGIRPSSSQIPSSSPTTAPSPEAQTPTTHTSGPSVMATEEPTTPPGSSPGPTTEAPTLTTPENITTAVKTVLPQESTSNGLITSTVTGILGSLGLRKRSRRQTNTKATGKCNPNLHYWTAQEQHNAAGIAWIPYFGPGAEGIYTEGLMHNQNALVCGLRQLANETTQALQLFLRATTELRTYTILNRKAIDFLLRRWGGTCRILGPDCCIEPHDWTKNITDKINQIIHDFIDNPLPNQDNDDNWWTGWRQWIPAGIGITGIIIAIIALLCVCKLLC

B1: H1H17162P (antibody, V domains shown)
VH: EVQLVESGGGLVQPGGSLRLSCAASEFTFSSYAMSWVRQAPGKGLEWVSAISGSSGSTYYADSVKGRFTISRDNSKKTLYLQMNSLRVEDTAVYYCAKGGYPHSFDIWGHGTMVTVSS
VL: DIQMTQSPSSLSASVGDRVTITCRASQSISSFLNWYQQKPGKAPKLLIYAASSLQSGVPSRFSGSGSGTDFTLTISSLQPEDFATYYCQQSYSSITFGQGTRLEIK
binding result [1]: no binding
Kd [2]: ≤ 0.46 nM
koff [2]: ≤ 1e-05 s⁻¹
kon [2]: 21800 M⁻¹ s⁻¹
t½ [2]: ≥ 19.2 h
Kd [3]: 0.288 nM
koff [3]: ≤ 1e-05 s⁻¹
kon [3]: 34700 M⁻¹ s⁻¹
t½ [3]: ≥ 19.2 h
binding result [4]: no binding (tested: below 0.10 nm at 300 nM)
t½ ratio pH 7.4/pH 5.0 [5]: 0.3
t½ ratio pH 7.4/pH 6.0 [5]: 0.3

B2: H1H17214P (antibody, V domains shown)
VH: EVQLVESGGGLVQPGGSLRLSCAASKFTFDTFAMSWVRQAPGKGLEWVSFISSSGGRTDYVDSVKGRFTISRDNSKNTLYLQMNSLRAEDTAVYYCAKERTIFGVLILGPDNYGMDVWGQGTTVTVSS
VL: DIQMTQSPSSLSAFVGDRVTITCRASQSISTYLNWYQQKPGKAPKLLIYAASSLQSGVSSRFSGSGSGTDFTLTISSLQPEDFATYYCQQSYSAPPITFGQGTRLEIK
binding result [1]: no binding
binding result [6]: no binding
Kd [2]: ≤ 0.266 nM
koff [2]: ≤ 1e-05 s⁻¹
kon [2]: 37600 M⁻¹ s⁻¹
t½ [2]: ≥ 19.2 h
Kd [3]: 4.2 nM
koff [3]: 0.000154 s⁻¹
kon [3]: 36700 M⁻¹ s⁻¹
t½ [3]: 1.25 h
binding result [4]: no binding (tested: below 0.10 nm at 300 nM)
t½ ratio pH 7.4/pH 5.0 [5]: 1
t½ ratio pH 7.4/pH 6.0 [5]: 1

B3: H1H17219P (antibody, V domains shown)
VH: QVQLQQSGPGLVKPSQTLSLTCAISGDSVSSNIPAWNWIRQSPSRGLEWLGRTYYRSKWYNDYAVSVKSRITINPDTSKNHFSLQLNSVTPEDTAVYYCARGRVYDRSSRYFYAMDVWGQGTTVTVSS
VL: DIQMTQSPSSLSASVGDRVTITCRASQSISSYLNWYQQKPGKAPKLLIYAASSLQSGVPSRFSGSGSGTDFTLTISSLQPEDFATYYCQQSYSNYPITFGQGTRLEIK
binding result [1]: no binding
binding result [6]: no binding
Kd [2]: 0.934 nM
koff [2]: 2.9e-05 s⁻¹
kon [2]: 31100 M⁻¹ s⁻¹
t½ [2]: 6.64 h
Kd [3]: 0.227 nM
koff [3]: ≤ 1e-05 s⁻¹
kon [3]: 44100 M⁻¹ s⁻¹
t½ [3]: ≥ 19.2 h
binding result [4]: no binding (tested: below 0.10 nm at 300 nM)
t½ ratio pH 7.4/pH 5.0 [5]: 1
t½ ratio pH 7.4/pH 6.0 [5]: 1

B4: H1H17223P (antibody, V domains shown)
VH: EVQLVESGGGLVQPGGSLRLSCAASGFTFRTYDMHWVRQATGKGLEWVSAIGTAGDTYYPGSVKGRFTISRENAKNSLYLQMNSLRAGDTAVYYCARTIFGVVLTFDYWGQGTLVTVSS
VL: DIQMTQSPSSLSASVGDRVTITCRASQSISSSLNWYQQKPGKAPKLLIYAASSLHSGVPSRFSGSGSGTDFTLTISSLQPEDFATYYCQQTYSIPPTTFGQGTKVEIK
binding result [1]: no binding
binding result [6]: no binding
Kd [2]: 2.03 nM
koff [2]: 6.08e-05 s⁻¹
kon [2]: 30000 M⁻¹ s⁻¹
t½ [2]: 3.17 h
Kd [3]: 6.89 nM
koff [3]: 0.000242 s⁻¹
kon [3]: 35100 M⁻¹ s⁻¹
t½ [3]: 0.795 h
binding result [4]: no binding (tested: below 0.10 nm at 300 nM)
t½ ratio pH 7.4/pH 5.0 [5]: 0.4
t½ ratio pH 7.4/pH 6.0 [5]: 0.4

B5: H1H17228P (antibody, V domains shown)
VH: EVQLVESGGGLVQPGGSLRLSCAASGFTFSNYAMIWVRQAPGKGLEWVSGISGSGGSIYYADSVKGRFTISRDNSKNTLYLQMNSLRAEDTAVYYCAKEGIISMVRGLINYYHGMDVWGQGTTVTVSS
VL: not shown
binding result [1]: no binding
binding result [6]: no binding
Kd [2]: 37.6 nM
koff [2]: 0.00169 s⁻¹
kon [2]: 44900 M⁻¹ s⁻¹
t½ [2]: 0.115 h
Kd [3]: 52.3 nM
koff [3]: 0.00383 s⁻¹
kon [3]: 73200 M⁻¹ s⁻¹
t½ [3]: 0.05 h
binding result [4]: no binding (tested: below 0.10 nm at 300 nM)
t½ ratio pH 7.4/pH 5.0 [5]: 0.5
t½ ratio pH 7.4/pH 6.0 [5]: 0.6

B6: H1H17142P (antibody, V domains shown)
VH: EVQLVESGGGLVQPGGSLRLSCAASGFTFSSYAMTWVRQAPGKGLEWVSSISGSGTSTYYADSVKGRFTISRDNSKNTLYLQMNSLRAEDTALYYCSRDIYTWNFLSLIGGMDVWGQGTTVTVSS
VL: DIQMTQSPSSLSASVGDRVTITCRASQGIRIDLGWYQQKPGKAPNRLIYAASSLQGGVPSRFSGSGSGTEFTLTISSLQPEDFATYYCLQQNSYPWTFGQGTKVEIK
binding result [6]: no binding
Kd [2]: 1.41 nM
koff [2]: 2.81e-05 s⁻¹
kon [2]: 20000 M⁻¹ s⁻¹
t½ [2]: 6.84 h
Kd [3]: 6.68 nM
koff [3]: 0.000174 s⁻¹
kon [3]: 26000 M⁻¹ s⁻¹
t½ [3]: 1.11 h
binding result [4]: no binding (tested: below 0.10 nm at 300 nM)
t½ ratio pH 7.4/pH 5.0 [5]: 0.5
t½ ratio pH 7.4/pH 6.0 [5]: 0.5

B7: H1M17357N (antibody, V domains shown)
VH: QVQLVQSGAEVKKPGASVKVSCKASGYTFTSYYMHWVRQAPGQGLEWMGIINPSGGSTSYAQKFQGRVTMTRDTSTSTVYMELSSLRSEDTAVYYCAREIGEAGEVFNYWGQGTLVTVSS
VL: DIQMTQSPSSLSASVGDRVTITCRASQSISRYLNWYQHKPGKAPKVLIYAASILQSGVPSRFSGSGSGTDFTLTISSLQPEDFATYYCQQSYSTPPITFGQGTRLEIK
notes: also called HCAF09D11-13
binding result [1]: no binding
binding result [6]: no binding
Kd [3]: 78.1 nM
koff [3]: 0.00184 s⁻¹
kon [3]: 23500 M⁻¹ s⁻¹
t½ [3]: 0.105 h
binding result [4]: no binding (tested: below 0.10 nm at 300 nM)
t½ ratio pH 7.4/pH 5.0 [5]: 0.5
t½ ratio pH 7.4/pH 6.0 [5]: 0.8

B8: H1H17360N (antibody, V domains shown)
VH: EVQLVESGGGLVQPGGSLRLSCAASGFTFSSYEMNWVRQAPGKGLEWVSYISSSGSTKYYADSVKGRFTISRDNAKNSLYLQMNSLRAEDTAVYYCARPSSIPALLRNQYHYGMDVWGQGTTVTVSS
VL: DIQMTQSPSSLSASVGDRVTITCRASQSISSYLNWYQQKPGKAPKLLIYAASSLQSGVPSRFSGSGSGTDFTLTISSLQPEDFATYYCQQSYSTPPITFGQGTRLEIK
binding result [1]: no binding
binding result [6]: no binding
binding result [4]: no binding (tested: below 0.10 nm at 300 nM)

B9: H1H17356N (antibody, V domains shown)
VH: EVQLVESGGGLVQPGGSLRLSCAASGFTFSSYEMNWVRQAPGKGLEWVSYIGSSGRATYYADSVKGRFTISRDNAKNSLYLQMNSLRAEDTAVYYCARPSSIAALLRNQYHFGMDVWGQGTTVTVSS
VL: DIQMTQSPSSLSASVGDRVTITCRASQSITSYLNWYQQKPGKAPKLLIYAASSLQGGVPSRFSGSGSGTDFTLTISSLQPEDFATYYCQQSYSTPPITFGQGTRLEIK
binding result [4]: no binding (tested: below 0.10 nm at 300 nM)

B10: H1H17358N2 (antibody, V domains shown)
VH: EVQLVESGGGLVQPGGSLRLSCAASGFTFSTYEMNWVRQAPGKGLEWVSYSSSSGRTIYYADSVKGRFTISRDNAKNSLFLQMNSLRAEDTAVYYCARPSSIETLLRNQYHYGVDVWGQGTTVTVSS
VL: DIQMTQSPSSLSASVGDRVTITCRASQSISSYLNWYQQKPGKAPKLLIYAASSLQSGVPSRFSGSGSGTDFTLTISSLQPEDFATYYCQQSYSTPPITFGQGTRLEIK
binding result [1]: no binding
binding result [6]: no binding
binding result [4]: no binding (tested: below 0.10 nm at 300 nM)

B11: H1H17359N (antibody, V domains shown)
VH: EVQLVESGGGLAQPGGSLRLSCAASGFTFSSHEMNWVRQAPGKGLEWVSYISRSGRIINYADSVKGRFTISRDNAKNSLYLQMNSLRAEDTAVYYCARERGSYYDILTGSQDYGMDVWGQGTTVTVSS
VL: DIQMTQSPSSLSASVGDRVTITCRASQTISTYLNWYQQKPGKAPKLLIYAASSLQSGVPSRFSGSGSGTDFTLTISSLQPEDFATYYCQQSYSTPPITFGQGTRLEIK
binding result [4]: no binding (tested: below 0.10 nm at 300 nM)
